Substitutions are numbered along the chain they refer to. In names and notes the source's numbering stands.
B1: S188P (protein)
chain: MQLRNPELHLGCALALRFLALVSWDIPGARALDNGLARTPTMGWLHWERFMCNLDCQEEPDSCISEKLFMEMAELMVSEGWKDAGYEYLCIDDCWMAPQRDSEGRLQADPQRFPHGIRQLANYVHSKGLKLGIYADVGNKTCAGFPGSFGYYDIDAQTFADWGVDLLKFDGCYCDSLENLADGYKHMPLALNRTGRSIVYSCEWPLYMWPFQKPNYTEIRQYCNHWRNFADIDDSWKSIKSILDWTSFNQERIVDVAGPGGWNDPDMLVIGNFGLSWNQQVTQMALWAIMAAPLFMSNDLRHISPQAKALLQDKDVIAINQDPLGKQGYQLRQGDNFEVWERPLSGLAWAVAMINRQEIGGPRSYTIAVASLGKGVACNPACFITQLLPVKRKLGFYEWTSRLRSHINPTGTVLLQLENTMQMSLKDLL
B2: S188Y (protein)
chain: B1 chain with P188Y
B3: L189V (protein)
chain: B1 chain with P188S, L189V
B4: N192H (protein)
chain: B1 chain with P188S, N192H
B5: A190G (protein)
chain: B1 chain with P188S, A190G
B6: L286H (protein)
chain: B1 chain with P188S, L286H
B7: L189S (protein)
chain: B1 chain with P188S, L189S
B8: A190S (protein)
chain: B1 chain with P188S, A190S
B9: L286F (protein)
chain: B1 chain with P188S, L286F
B10: A190V (protein)
chain: B1 chain with P188S, A190V
B11: A190T (protein)
chain: B1 chain with P188S, A190T
B12: N192D (protein)
chain: B1 chain with P188S, N192D
B13: L286V (protein)
chain: B1 chain with P188S, L286V
B14: L191V (protein)
chain: B1 chain with P188S, L191V
B15: A190D (protein)
chain: B1 chain with P188S, A190D
B16: S188T (protein)
chain: B1 chain with P188T
B17: L191M (protein)
chain: B1 chain with P188S, L191M

System: mutant form of α-Gal A expressed in HEK-293 cells
Experiment: HEK assay (GLP HEK / Migalastat Amenability Assay): α-Gal A activity in lysates of transiently transfected HEK-293 cells incubated with or without 10 μM migalastat
Type: cell-based, human
Details: for 10 μM migalastat α-Gal A activity (% WT): 5 days; for 10 μM migalastat α-Gal A activity (% WT) / Baseline α-Gal A activity (% WT): percentage of baseline wild-type α-Gal A activity; for 10 μM migalastat α-Gal A activity (% WT) / 10 μM migalastat α-Gal A activity / Baseline α-Gal A activity (% WT) / Baseline α-Gal A activity: mean ± SEM; for 10 μM migalastat α-Gal A activity: incubated 5 days with 10 μM migalastat
In short: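 Activity reported as 4-MU released (nmol/mg/hr), mean±SEM, from lysates of transiently transfected HEK-293 cells expressing mutant α-Gal A, cultured with or without 10 μM migalastat.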

[1] = 10 μM migalastat versus baseline
[2] = lysates of HEK-293 cells transfected with the mutant form
[3] = 10 μM migalastat α-Gal A activity relative to baseline
[4] = lysates of HEK-293 cells transfected with the mutant form, incubated 5 days in the absence of migalastat
[5] = lysates of HEK-293 cells transiently transfected with the mutant form, incubated 5 days in absence of migalastat
[6] = lysates of HEK-293 cells transiently transfected with the mutant form

Row | Molecule | Absolute increase (% WT) [1] | 10 μM migalastat α-Gal A activity (% WT) (10 μM migalastat) | Baseline α-Gal A activity (nmol/mg/hr) (absence of migalastat, mean activity below the limit of detection (<142 nmol/mg/hr)) | 10 μM migalastat α-Gal A activity [2] | Relative increase [3] | Baseline α-Gal A activity (% WT) (absence of migalastat) | Baseline α-Gal A activity [4] | Relative increase [1] | Baseline α-Gal A activity [5] | 10 μM migalastat α-Gal A activity [6] | 10 μM migalastat α-Gal A activity (% WT) (with 10 μM migalastat)
1 | B1 | 3.2 % WT | 3.2 ± 0.2 % WT | BLD (“BLD” indicates that the mean α-Gal A activity was below the limit of detection (<142 nmol/mg/hr)) | 1159 ± 61 nmol/mg/h |  |  |  |  |  |  | 
2 | B2 | 31.5 % WT | 64.1 ± 3.5 % WT |  | 23849 ± 1725 nmol/mg/h | 2.0 | 32.6 ± 2.6 % WT | 12244 ± 1167 nmol/mg/h |  |  |  | 
3 | B3 | 20.2 % WT | 100.1 ± 3.9 % WT |  | 32031 ± 1633 nmol/mg/h | 1.3 | 79.9 ± 5.1 % WT | 25544 ± 1758 nmol/mg/h |  |  |  | 
4 | B4 | 16.4 % WT | 24.9 ± 3 % WT |  | 8765 ± 935 nmol/mg/h | 2.8 | 8.6 ± 1.1 % WT | 3103 ± 402 nmol/mg/h |  |  |  | 
5 | B5 | 27.4 % WT | 97.9 ± 9.8 % WT |  | 34126 ± 2992 nmol/mg/h | 1.4 | 70.5 ± 7.3 % WT | 24299 ± 2173 nmol/mg/h |  |  |  | 
6 | B6 | 15.4 % WT |  |  |  |  | 0.8 ± 0.1 % WT |  | 22.2 | 359 ± 52 nmol/mg/h | 7960 ± 1511 nmol/mg/h | 16.2 ± 2.5 % WT
7 | B7 | 20.1 % WT | 92.7 ± 3.2 % WT |  | 29510 ± 1181 nmol/mg/h | 1.3 | 72.6 ± 3.1 % WT | 23204 ± 1213 nmol/mg/h |  |  |  | 
8 | B8 | 26.1 % WT | 110.6 ± 5.5 % WT |  | 35787 ± 2235 nmol/mg/h | 1.3 | 84.5 ± 3.2 % WT | 27316 ± 1369 nmol/mg/h |  |  |  | 
9 | B9 | 23.2 % WT |  |  |  |  | 64.5 ± 2.8 % WT |  | 1.4 | 29390 ± 1225 nmol/mg/h | 39732 ± 2859 nmol/mg/h | 87.7 ± 7.3 % WT
10 | B10 | 41.2 % WT | 77.9 ± 9.5 % WT |  | 27078 ± 2910 nmol/mg/h | 2.2 | 36.8 ± 5.1 % WT | 12542 ± 1642 nmol/mg/h |  |  |  | 
11 | B11 | 30.7 % WT | 57 ± 1.9 % WT |  | 18373 ± 795 nmol/mg/h | 2.1 | 26.3 ± 2 % WT | 8600 ± 733 nmol/mg/h |  |  |  | 
12 | B12 | 55.6 % WT | 81.5 ± 6.7 % WT |  | 28923 ± 1892 nmol/mg/h | 3.2 | 25.9 ± 3 % WT | 9035 ± 886 nmol/mg/h |  |  |  | 
13 | B13 | 32.9 % WT |  |  |  |  | 66 ± 5.1 % WT |  | 1.4 | 28713 ± 3734 nmol/mg/h | 41335 ± 3422 nmol/mg/h | 98.9 ± 4.3 % WT
14 | B14 | 39.1 % WT | 110.2 ± 7.9 % WT |  | 37342 ± 2569 nmol/mg/h | 1.6 | 71.1 ± 4.7 % WT | 24068 ± 1533 nmol/mg/h |  |  |  | 
15 | B15 | 26.9 % WT | 49 ± 3.4 % WT |  | 15887 ± 1308 nmol/mg/h | 2.2 | 22.1 ± 1 % WT | 7141 ± 423 nmol/mg/h |  |  |  | 
16 | B16 | 24.0 % WT | 69.5 ± 4.5 % WT |  | 26198 ± 2461 nmol/mg/h | 1.5 | 45.4 ± 2.5 % WT | 17041 ± 1389 nmol/mg/h |  |  |  | 
17 | B17 | 41.7 % WT | 100.2 ± 9.8 % WT |  | 34977 ± 3072 nmol/mg/h | 1.8 | 58.4 ± 6.6 % WT | 19968 ± 2010 nmol/mg/h |  |  |  | 
